Drawing on patent US20080096811A1, “[…] VPAC2 RECEPTOR PEPTIDE AGONISTS” (Eli Lilly and Company, published 2008), this text covers EC50 (nM) for cAMP generation, Alpha Screen and EC50 (nM) for cAMP generation, DiscoveRx for 7 molecules.

The assay has as its target T1, human VPAC2 receptor (human) (UniProt P41587).
T1 sequence: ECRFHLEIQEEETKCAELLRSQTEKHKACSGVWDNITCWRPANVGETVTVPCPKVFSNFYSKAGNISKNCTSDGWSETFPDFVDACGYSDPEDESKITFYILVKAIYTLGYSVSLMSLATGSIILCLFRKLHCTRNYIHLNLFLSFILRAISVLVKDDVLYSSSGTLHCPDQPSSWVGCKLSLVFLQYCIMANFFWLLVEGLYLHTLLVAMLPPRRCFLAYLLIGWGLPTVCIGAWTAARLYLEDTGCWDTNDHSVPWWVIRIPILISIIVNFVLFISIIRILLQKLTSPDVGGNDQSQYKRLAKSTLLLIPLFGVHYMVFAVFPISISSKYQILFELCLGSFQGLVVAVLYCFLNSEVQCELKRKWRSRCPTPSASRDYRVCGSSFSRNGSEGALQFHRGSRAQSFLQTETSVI

*1 amine or outer side, *2 acyl side, *3 side chain or, on linkers, in order; H or OH if unused. Where no end group is shown, it is not given here. Side-chain parts run from the residue outwards. The star is where a group is joined. γGlu = O=C(O)[C@H](CCC(=O)[*:2])N[*:1]; Hydrocinnamoyl = O=C(CCc1ccccc1)*; Palmitoyl = CCCCCCCCCCCCCCCC(=O)*; Hexanoyl = CCCCCC(=O)*; Bz = O=C(c1ccccc1)*

B1: P90 (peptide)
peptide: Hydrocinnamoyl-HSDAVFTDNYTRLRKQVAAKKYLQSIKNSRTSPPP-NH2
SMILES: CC[C@H](C)[C@H](NC(=O)[C@H](CO)NC(=O)[C@H](CCC(N)=O)NC(=O)[C@H](CC(C)C)NC(=O)[C@H](Cc1ccc(O)cc1)NC(=O)[C@H](CCCCN)NC(=O)[C@H](CCCCN)NC(=O)[C@H](C)NC(=O)[C@H](C)NC(=O)[C@@H](NC(=O)[C@H](CCC(N)=O)NC(=O)[C@H](CCCCN)NC(=O)[C@H](CCCNC(=N)N)NC(=O)[C@H](CC(C)C)NC(=O)[C@H](CCCNC(=N)N)NC(=O)[C@@H](NC(=O)[C@H](Cc1ccc(O)cc1)NC(=O)[C@H](CC(N)=O)NC(=O)[C@H](CC(=O)O)NC(=O)[C@@H](NC(=O)[C@H](Cc1ccccc1)NC(=O)[C@@H](NC(=O)[C@H](C)NC(=O)[C@H](CC(=O)O)NC(=O)[C@H](CO)NC(=O)[C@H](Cc1c[nH]cn1)NC(=O)CCc1ccccc1)C(C)C)[C@@H](C)O)[C@@H](C)O)C(C)C)C(=O)N[C@@H](CCCCN)C(=O)N[C@@H](CC(N)=O)C(=O)N[C@@H](CO)C(=O)N[C@@H](CCCNC(=N)N)C(=O)N[C@H](C(=O)N[C@@H](CO)C(=O)N1CCC[C@H]1C(=O)N1CCC[C@H]1C(=O)N1CCC[C@H]1C(N)=O)[C@@H](C)O
Regarding B1, the EC50 (nM) for cAMP generation, Alpha Screen worked out at 4.01 nM and the EC50 (nM) for cAMP generation, DiscoveRx was determined as 1.7 nM.

B2: P157 (peptide)
peptide: Hexanoyl-HSDAVFTDQYTRLRKQVAAKKYLQSIKQSRTSPPP-NH2
SMILES: CCCCCC(=O)N[C@@H](Cc1c[nH]cn1)C(=O)N[C@@H](CO)C(=O)N[C@@H](CC(=O)O)C(=O)N[C@@H](C)C(=O)N[C@H](C(=O)N[C@@H](Cc1ccccc1)C(=O)N[C@H](C(=O)N[C@@H](CC(=O)O)C(=O)N[C@@H](CCC(N)=O)C(=O)N[C@@H](Cc1ccc(O)cc1)C(=O)N[C@H](C(=O)N[C@@H](CCCNC(=N)N)C(=O)N[C@@H](CC(C)C)C(=O)N[C@@H](CCCNC(=N)N)C(=O)N[C@@H](CCCCN)C(=O)N[C@@H](CCC(N)=O)C(=O)N[C@H](C(=O)N[C@@H](C)C(=O)N[C@@H](C)C(=O)N[C@@H](CCCCN)C(=O)N[C@@H](CCCCN)C(=O)N[C@@H](Cc1ccc(O)cc1)C(=O)N[C@@H](CC(C)C)C(=O)N[C@@H](CCC(N)=O)C(=O)N[C@@H](CO)C(=O)N[C@H](C(=O)N[C@@H](CCCCN)C(=O)N[C@@H](CCC(N)=O)C(=O)N[C@@H](CO)C(=O)N[C@@H](CCCNC(=N)N)C(=O)N[C@H](C(=O)N[C@@H](CO)C(=O)N1CCC[C@H]1C(=O)N1CCC[C@H]1C(=O)N1CCC[C@H]1C(N)=O)[C@@H](C)O)[C@@H](C)CC)C(C)C)[C@@H](C)O)[C@@H](C)O)C(C)C
Molecule B2 registered an EC50 (nM) for cAMP generation, Alpha Screen of 0.06 nM.

B3: P91 (peptide)
peptide: Bz-HSDAVFTDNYTRLRKQVAAKKYLQSIKNSRTSPPP-NH2
SMILES: CC[C@H](C)[C@H](NC(=O)[C@H](CO)NC(=O)[C@H](CCC(N)=O)NC(=O)[C@H](CC(C)C)NC(=O)[C@H](Cc1ccc(O)cc1)NC(=O)[C@H](CCCCN)NC(=O)[C@H](CCCCN)NC(=O)[C@H](C)NC(=O)[C@H](C)NC(=O)[C@@H](NC(=O)[C@H](CCC(N)=O)NC(=O)[C@H](CCCCN)NC(=O)[C@H](CCCNC(=N)N)NC(=O)[C@H](CC(C)C)NC(=O)[C@H](CCCNC(=N)N)NC(=O)[C@@H](NC(=O)[C@H](Cc1ccc(O)cc1)NC(=O)[C@H](CC(N)=O)NC(=O)[C@H](CC(=O)O)NC(=O)[C@@H](NC(=O)[C@H](Cc1ccccc1)NC(=O)[C@@H](NC(=O)[C@H](C)NC(=O)[C@H](CC(=O)O)NC(=O)[C@H](CO)NC(=O)[C@H](Cc1c[nH]cn1)NC(=O)c1ccccc1)C(C)C)[C@@H](C)O)[C@@H](C)O)C(C)C)C(=O)N[C@@H](CCCCN)C(=O)N[C@@H](CC(N)=O)C(=O)N[C@@H](CO)C(=O)N[C@@H](CCCNC(=N)N)C(=O)N[C@H](C(=O)N[C@@H](CO)C(=O)N1CCC[C@H]1C(=O)N1CCC[C@H]1C(=O)N1CCC[C@H]1C(N)=O)[C@@H](C)O
On to B3, for which the EC50 (nM) for cAMP generation, Alpha Screen is 1.9 nM and the EC50 (nM) for cAMP generation, DiscoveRx is 0.76 nM.

B4: P156 (peptide)
peptide: Hexanoyl-HSDAVFTDNYTRLLLKVAAKKYLQSIKNSRTSPPP-NH2
SMILES: CCCCCC(=O)N[C@@H](Cc1c[nH]cn1)C(=O)N[C@@H](CO)C(=O)N[C@@H](CC(=O)O)C(=O)N[C@@H](C)C(=O)N[C@H](C(=O)N[C@@H](Cc1ccccc1)C(=O)N[C@H](C(=O)N[C@@H](CC(=O)O)C(=O)N[C@@H](CC(N)=O)C(=O)N[C@@H](Cc1ccc(O)cc1)C(=O)N[C@H](C(=O)N[C@@H](CCCNC(=N)N)C(=O)N[C@@H](CC(C)C)C(=O)N[C@@H](CC(C)C)C(=O)N[C@@H](CC(C)C)C(=O)N[C@@H](CCCCN)C(=O)N[C@H](C(=O)N[C@@H](C)C(=O)N[C@@H](C)C(=O)N[C@@H](CCCCN)C(=O)N[C@@H](CCCCN)C(=O)N[C@@H](Cc1ccc(O)cc1)C(=O)N[C@@H](CC(C)C)C(=O)N[C@@H](CCC(N)=O)C(=O)N[C@@H](CO)C(=O)N[C@H](C(=O)N[C@@H](CCCCN)C(=O)N[C@@H](CC(N)=O)C(=O)N[C@@H](CO)C(=O)N[C@@H](CCCNC(=N)N)C(=O)N[C@H](C(=O)N[C@@H](CO)C(=O)N1CCC[C@H]1C(=O)N1CCC[C@H]1C(=O)N1CCC[C@H]1C(N)=O)[C@@H](C)O)[C@@H](C)CC)C(C)C)[C@@H](C)O)[C@@H](C)O)C(C)C
B4 came in with an EC50 (nM) for cAMP generation, Alpha Screen of 0.29 nM.

B5: P80 (peptide)
peptide: HSDAVFTDNYTRLRKQVAAKKYLQSIKNSRTSPPPK([γGlu-Palmitoyl])-NH2
modifications: N-terminus assumed
SMILES: CCCCCCCCCCCCCCCC(=O)N[C@@H](CCC(=O)NCCCC[C@H](NC(=O)[C@@H]1CCCN1C(=O)[C@@H]1CCCN1C(=O)[C@@H]1CCCN1C(=O)[C@H](CO)NC(=O)[C@@H](NC(=O)[C@H](CCCNC(=N)N)NC(=O)[C@H](CO)NC(=O)[C@H](CC(N)=O)NC(=O)[C@H](CCCCN)NC(=O)[C@@H](NC(=O)[C@H](CO)NC(=O)[C@H](CCC(N)=O)NC(=O)[C@H](CC(C)C)NC(=O)[C@H](Cc1ccc(O)cc1)NC(=O)[C@H](CCCCN)NC(=O)[C@H](CCCCN)NC(=O)[C@H](C)NC(=O)[C@H](C)NC(=O)[C@@H](NC(=O)[C@H](CCC(N)=O)NC(=O)[C@H](CCCCN)NC(=O)[C@H](CCCNC(=N)N)NC(=O)[C@H](CC(C)C)NC(=O)[C@H](CCCNC(=N)N)NC(=O)[C@@H](NC(=O)[C@H](Cc1ccc(O)cc1)NC(=O)[C@H](CC(N)=O)NC(=O)[C@H](CC(=O)O)NC(=O)[C@@H](NC(=O)[C@H](Cc1ccccc1)NC(=O)[C@@H](NC(=O)[C@H](C)NC(=O)[C@H](CC(=O)O)NC(=O)[C@H](CO)NC(=O)[C@@H](N)Cc1c[nH]cn1)C(C)C)[C@@H](C)O)[C@@H](C)O)C(C)C)[C@@H](C)CC)[C@@H](C)O)C(N)=O)C(=O)O
The molecule B5 returned an EC50 (nM) for cAMP generation, Alpha Screen of 1.82 nM and an EC50 (nM) for cAMP generation, DiscoveRx of 2.8 nM.

B6: P128 (peptide)
peptide: HSDAVFTDNYTRLRKQVAAKKYLQSIKNSRTSPPPK(Trp)-NH2
modifications: N-terminus assumed
SMILES: CC[C@H](C)[C@H](NC(=O)[C@H](CO)NC(=O)[C@H](CCC(N)=O)NC(=O)[C@H](CC(C)C)NC(=O)[C@H](Cc1ccc(O)cc1)NC(=O)[C@H](CCCCN)NC(=O)[C@H](CCCCN)NC(=O)[C@H](C)NC(=O)[C@H](C)NC(=O)[C@@H](NC(=O)[C@H](CCC(N)=O)NC(=O)[C@H](CCCCN)NC(=O)[C@H](CCCNC(=N)N)NC(=O)[C@H](CC(C)C)NC(=O)[C@H](CCCNC(=N)N)NC(=O)[C@@H](NC(=O)[C@H](Cc1ccc(O)cc1)NC(=O)[C@H](CC(N)=O)NC(=O)[C@H](CC(=O)O)NC(=O)[C@@H](NC(=O)[C@H](Cc1ccccc1)NC(=O)[C@@H](NC(=O)[C@H](C)NC(=O)[C@H](CC(=O)O)NC(=O)[C@H](CO)NC(=O)[C@@H](N)Cc1c[nH]cn1)C(C)C)[C@@H](C)O)[C@@H](C)O)C(C)C)C(=O)N[C@@H](CCCCN)C(=O)N[C@@H](CC(N)=O)C(=O)N[C@@H](CO)C(=O)N[C@@H](CCCNC(=N)N)C(=O)N[C@H](C(=O)N[C@@H](CO)C(=O)N1CCC[C@H]1C(=O)N1CCC[C@H]1C(=O)N1CCC[C@H]1C(=O)N[C@@H](CCCCNC(=O)[C@@H](N)Cc1c[nH]c2ccccc12)C(N)=O)[C@@H](C)O
B6 yielded an EC50 (nM) for cAMP generation, Alpha Screen of 1.78 nM.

B7: P178 (peptide)
peptide: Hexanoyl-HSDAVFTDNYTRLRKAAAAKKYLQSIKNSRTSPPP-NH2
SMILES: CCCCCC(=O)N[C@@H](Cc1c[nH]cn1)C(=O)N[C@@H](CO)C(=O)N[C@@H](CC(=O)O)C(=O)N[C@@H](C)C(=O)N[C@H](C(=O)N[C@@H](Cc1ccccc1)C(=O)N[C@H](C(=O)N[C@@H](CC(=O)O)C(=O)N[C@@H](CC(N)=O)C(=O)N[C@@H](Cc1ccc(O)cc1)C(=O)N[C@H](C(=O)N[C@@H](CCCNC(=N)N)C(=O)N[C@@H](CC(C)C)C(=O)N[C@@H](CCCNC(=N)N)C(=O)N[C@@H](CCCCN)C(=O)N[C@@H](C)C(=O)N[C@@H](C)C(=O)N[C@@H](C)C(=O)N[C@@H](C)C(=O)N[C@@H](CCCCN)C(=O)N[C@@H](CCCCN)C(=O)N[C@@H](Cc1ccc(O)cc1)C(=O)N[C@@H](CC(C)C)C(=O)N[C@@H](CCC(N)=O)C(=O)N[C@@H](CO)C(=O)N[C@H](C(=O)N[C@@H](CCCCN)C(=O)N[C@@H](CC(N)=O)C(=O)N[C@@H](CO)C(=O)N[C@@H](CCCNC(=N)N)C(=O)N[C@H](C(=O)N[C@@H](CO)C(=O)N1CCC[C@H]1C(=O)N1CCC[C@H]1C(=O)N1CCC[C@H]1C(N)=O)[C@@H](C)O)[C@@H](C)CC)[C@@H](C)O)[C@@H](C)O)C(C)C
In turn, B7 had an EC50 (nM) for cAMP generation, Alpha Screen of 0.12 nM.
